For assay [1], the target named is T1, ErbB-4 receptor-Ig fusion (human, UniProt Q15303 26-651).
T1 construct: extracellular domain;range 224-C-terminus; also called ErbB-4-Ig; not shown: human IgG heavy chain constant region from His224 (hinge) on
T1 sequence: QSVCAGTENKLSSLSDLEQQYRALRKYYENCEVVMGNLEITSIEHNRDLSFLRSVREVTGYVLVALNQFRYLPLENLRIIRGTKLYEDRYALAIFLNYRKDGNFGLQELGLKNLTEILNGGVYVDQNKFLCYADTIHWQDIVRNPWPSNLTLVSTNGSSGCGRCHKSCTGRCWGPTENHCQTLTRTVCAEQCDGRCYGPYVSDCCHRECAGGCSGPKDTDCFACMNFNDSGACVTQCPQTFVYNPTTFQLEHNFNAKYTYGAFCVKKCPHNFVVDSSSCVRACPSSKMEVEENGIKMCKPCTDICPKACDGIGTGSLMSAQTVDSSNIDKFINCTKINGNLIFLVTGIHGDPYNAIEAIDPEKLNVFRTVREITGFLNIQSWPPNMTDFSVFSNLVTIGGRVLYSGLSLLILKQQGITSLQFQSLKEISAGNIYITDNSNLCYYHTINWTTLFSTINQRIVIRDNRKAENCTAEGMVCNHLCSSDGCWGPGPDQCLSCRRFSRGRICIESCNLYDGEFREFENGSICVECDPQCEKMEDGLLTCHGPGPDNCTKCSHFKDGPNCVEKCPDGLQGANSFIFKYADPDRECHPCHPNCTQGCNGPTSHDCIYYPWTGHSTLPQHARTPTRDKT
The experiment in a line: displacement of 125I-HRG-β1 177-244 from plate-bound ErbB-4-Ig. (Displacement assays read how much labelled ligand stays bound in the presence of the test substance.)

Assay [2] has as its target T2, ErbB-3 receptor-Ig fusion (human, UniProt P21860 20-643).
T2 construct: extracellular domain;range 224-C-terminus; also called ErbB-3-Ig; 3/3 homodimer; not shown: human IgG heavy chain constant region from His224 (hinge) on
Briefly: displacement of 125I-HRG-β1 177-244 from plate-bound ErbB-3-Ig.

For assay [3], the target named is T1, ErbB-4 receptor-Ig fusion. The experiment in a line: phage ELISA; soluble ErbB-4-Ig as competitor. In general terms: An ELISA detects its analyte on a solid surface through an enzyme-linked reagent.
Procedure: (§1) Microtiter plates (Nunc Maxisorp™ 96-well plates, Inter Med, Denmark) for phage ELISA were prepared as follows. The wells were precoated overnight with 0.5 μg of rabbit anti-human IgG (Fc gamma fragment-specific) antibodies (Jackson Immunoresearch, West Grove, Pa.) in 100 μL 50 mM NaCO₃ (pH 9.6). The wells were blocked for 30 minutes (min) with 200 μL PBS containing 0.1% bovine serum albumin (BSA) and rinsed with wash buffer (PBS containing 0.05% Tween 20™). The wells were then coated with 0.1 μg ErbB-2/3-Ig in binding buffer (PBS, 0.1% BSA, 0.05% Tween 20™) for 1 h, and washed again.
(§2) Serial dilutions of soluble ErbB-2/3-Ig (competitor) and a concentration of phage predetermined to give 60% saturation (without competitor) were added to the wells in 100 μL binding buffer. Following incubation for 2 h at room temperature, plates were washed extensively and treated with a 1:900 dilution of anti-M13 horseradish peroxidase conjugate (Pharmacia, Piscataway, N.J.) for 20 min. The amount of phage binding was determined by assaying horseradish peroxidase activity using o-phenylenediamine dihydrochloride) substrate solution (Sigma Chemical Company, St. Louis, Mo.). EC₅₀ values were calculated as the concentration of soluble ErbB-2/3-Ig required to compete half of the phage off the plate.
In assay [4] the target is T2, ErbB-3 receptor-Ig fusion. Briefly: phage ELISA; soluble ErbB-3-Ig as competitor.
Procedure: as §1, §2

The term EC50 denotes the concentration giving half of the maximal effect.

T2 sequence (P21860 other isoform, or with tags, fused parts or gaps): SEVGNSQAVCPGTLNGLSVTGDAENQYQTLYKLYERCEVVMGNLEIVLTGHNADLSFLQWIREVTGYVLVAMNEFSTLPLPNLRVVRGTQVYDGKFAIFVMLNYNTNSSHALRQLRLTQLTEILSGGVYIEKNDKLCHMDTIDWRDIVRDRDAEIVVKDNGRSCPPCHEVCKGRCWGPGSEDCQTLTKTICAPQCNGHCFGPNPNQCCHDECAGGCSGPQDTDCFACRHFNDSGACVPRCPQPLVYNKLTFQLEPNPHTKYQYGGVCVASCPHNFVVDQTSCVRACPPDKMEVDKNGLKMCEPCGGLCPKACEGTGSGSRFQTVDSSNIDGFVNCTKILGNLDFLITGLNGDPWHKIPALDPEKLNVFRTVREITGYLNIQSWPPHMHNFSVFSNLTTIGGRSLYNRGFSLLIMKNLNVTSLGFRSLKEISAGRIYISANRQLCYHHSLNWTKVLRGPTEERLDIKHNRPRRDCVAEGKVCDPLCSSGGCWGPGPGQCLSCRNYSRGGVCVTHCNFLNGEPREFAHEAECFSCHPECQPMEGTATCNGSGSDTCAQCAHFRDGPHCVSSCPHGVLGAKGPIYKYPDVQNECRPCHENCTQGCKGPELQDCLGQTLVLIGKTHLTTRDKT

On to “Trx-HRG-β1 146-244 L179A fusion (soluble) (from UniProt Q6DR98 147-244) (ligand)”, for which the EC50 in assay [1] is 51.7 nM; in assay [2] it was 394 nM. For “Trx-HRG-β1 146-244 V199A fusion (soluble) (from UniProt Q6DR98 147-244) (ligand)”, in assay [1], the EC50 is 246 nM. With “Trx-HRG-β1 146-244 G194A fusion (soluble) (from UniProt Q6DR98 147-244) (ligand)”, the EC50 in assay [1] is 275 nM; in assay [2] it was 1210 nM. Consider “Trx-HRG-β1 146-244 R207A fusion (soluble) (from UniProt Q6DR98 147-244) (ligand)”, for which the EC50 is 24.3 nM in assay [1] and 245 nM in assay [2].

For the molecule “Trx-HRG-β1 146-244 N192A fusion (soluble) (from UniProt Q6DR98 147-244) (ligand)”, the EC50 in assay [1] came to 696 nM; in assay [2], 1640 nM. With “Trx-HRG-β1 146-244 S177A fusion (soluble) (from UniProt Q6DR98 147-244) (ligand)”, the EC50 was found to be 54.6 nM in assay [1] and 129 nM in assay [2]. Consider “Trx-HRG-β1 146-244 E195A fusion (soluble) (from UniProt Q6DR98 147-244) (ligand)”, for which the EC50 in assay [1] is 13.2 nM; in assay [2] it was 42 nM. Turning to “Trx-HRG-β1 146-244 F229A fusion (soluble) (from UniProt Q6DR98 147-244) (ligand)”, the EC50 in assay [1] came to 89.9 nM; in assay [2], 177 nM.

As for “Trx-HRG-β1 146-244 F189A fusion (soluble) (from UniProt Q6DR98 147-244) (ligand)”, the EC50 in assay [1] was found to be 565 nM; in assay [2], 975 nM.

Regarding “Trx-HRG-β1 146-244 G193A fusion (soluble) (from UniProt Q6DR98 147-244) (ligand)”, the EC50 in assay [1] is 76.3 nM; in assay [2], 26.9 nM. “Trx-HRG-β1 146-244 T217A fusion (soluble) (from UniProt Q6DR98 147-244) (ligand)”: the EC50 is 32.7 nM in assay [1] and 145 nM in assay [2]. “Trx-HRG-β1 146-244 K200A fusion (soluble) (from UniProt Q6DR98 147-244) (ligand)”: the EC50 in assay [1] was found to be 16.9 nM; in assay [2] it was 45.4 nM.

With “Trx-HRG-β1 146-244 G218A fusion (soluble) (from UniProt Q6DR98 147-244) (ligand)”, the values for the EC50 in assay [1] and in assay [2] were 608 nM and 668 nM, respectively. Regarding “Trx-HRG-β1 146-244 H178A fusion (soluble) (from UniProt Q6DR98 147-244) (ligand)”, the EC50 came out at 138 nM in assay [1] and 476 nM in assay [2]. For “Trx-HRG-β1 146-244 Y224A fusion (soluble) (from UniProt Q6DR98 147-244) (ligand)”, the EC50 in assay [1] came to 24.5 nM; in assay [2], 339 nM.

Turning to “Trx-HRG-β1 146-244 P205A fusion (soluble) (from UniProt Q6DR98 147-244) (ligand)”, the EC50 in assay [1] is 34.2 nM; in assay [2], 39.5 nM. Take “Trx-HRG-β1 146-244 E215A fusion (soluble) (from UniProt Q6DR98 147-244) (ligand)”: the EC50 in assay [1] came to 104 nM; in assay [2] it was 156 nM. Turning to “Trx-HRG-β1 146-244 F216A fusion (soluble) (from UniProt Q6DR98 147-244) (ligand)”, the EC50 in assay [1] came to 173 nM; in assay [2], 2550 nM. Regarding “Trx-HRG-β1 146-244 K211A fusion (soluble) (from UniProt Q6DR98 147-244) (ligand)”, the EC50 in assay [1] was 124 nM; in assay [2], 248 nM.

B1: TH-WT: thioredoxin fused at its C-terminus to wild-type HRG-β1 146-244 (ligand)
chain: DDDDKAYVSSESPIRISVSTEGANTSSSTSTSTTGTSHLVKCAEKEKTFCVNGGECFMVKDLSNPSRYLCKCPNEFTGDRCQNYVMASFYKHLGIEFMEAEELY
notes: also called Trx-wild-type HRG-β1; not shown: thioredoxin (Trx) from pTrxFus
As for B1, the EC50 worked out at 15.4 nM in assay [1] and 47.6 nM in assay [2].

B2: recombinantly produced HRG-β1 177-244 (soluble) (ligand)
chain: SHLVKCAEKEKTFCVNGGECFMVKDLSNPSRYLCKCPNEFTGDRCQNYVMASFYKHLGIEFMEAEELY
In the case of B2, the EC50 came out at 14.8 nM in assay [1] and 9 nM in assay [2].

B3: HRG-β1 177-244 L179A on phage (ligand)
chain: SHAVKCAEKEKTFCVNGGECFMVKDLSNPSRYLCKCPNEFTGDRCQNYVMASFYKHLGIEFMEAEELY
notes: not shown: M13 pIII C-terminal fragment (from pIII residue 247), the phage display partner
On to B3, for which the EC50 was 56 nM in assay [3] and approximately 1000 nM in assay [4].

B4: HRG-β1 177-244 H178A on phage (ligand)
chain: SALVKCAEKEKTFCVNGGECFMVKDLSNPSRYLCKCPNEFTGDRCQNYVMASFYKHLGIEFMEAEELY
notes: as for B3
On to B4, for which the midpoint of the response in assay [3], the EC50, lay at 32 nM.

B5: HRG-β1 177-244 E195A on phage (ligand)
chain: SHLVKCAEKEKTFCVNGGACFMVKDLSNPSRYLCKCPNEFTGDRCQNYVMASFYKHLGIEFMEAEELY
notes: as for B3
B5: the midpoint of the response in assay [3], the EC50, lay at 24 nM.

B6: HRG-β1 177-244 G194A on phage (ligand)
chain: SHLVKCAEKEKTFCVNGAECFMVKDLSNPSRYLCKCPNEFTGDRCQNYVMASFYKHLGIEFMEAEELY
notes: as for B3
On to B6, for which the values for the EC50 in assay [3] and in assay [4] were 65 nM and 500 nM, respectively.

B7: HRG-β1 177-244 G193A on phage (ligand)
chain: SHLVKCAEKEKTFCVNAGECFMVKDLSNPSRYLCKCPNEFTGDRCQNYVMASFYKHLGIEFMEAEELY
notes: as for B3
B7: the EC50 in assay [3] was 23 nM.

B8: HRG-β1 177-244 N192A on phage (ligand)
chain: SHLVKCAEKEKTFCVAGGECFMVKDLSNPSRYLCKCPNEFTGDRCQNYVMASFYKHLGIEFMEAEELY
notes: as for B3
B8: the concentration giving a half-maximal response (EC50) in assay [3] amounted to 188 nM.

B9: HRG-β1 177-244 K211A on phage (ligand)
chain: SHLVKCAEKEKTFCVNGGECFMVKDLSNPSRYLCACPNEFTGDRCQNYVMASFYKHLGIEFMEAEELY
notes: not shown: M13 pIII fragment from residue 247 to the C-terminus (phage display carrier) and any cloning-site junction
B9 had a 50% effective concentration (EC50) in assay [3] of 59 nM.

B10: HRG-β1 177-244 K200A on phage (ligand)
chain: SHLVKCAEKEKTFCVNGGECFMVADLSNPSRYLCKCPNEFTGDRCQNYVMASFYKHLGIEFMEAEELY
notes: also called K2OO; not shown: M13 pIII fragment from residue 247 to the C-terminus (phage display carrier) and any cloning-site junction
Consider B10, for which the EC50 in assay [3] came to 25 nM; in assay [4], 20 nM.

B11: HRG-β1 177-244 T217A on phage (ligand)
chain: SHLVKCAEKEKTFCVNGGECFMVKDLSNPSRYLCKCPNEFAGDRCQNYVMASFYKHLGIEFMEAEELY
notes: as for B9
For the molecule B11, in assay [3], the EC50 was 14.2 nM. This counts as double-digit nanomolar.

B12: HRG-β1 177-244 E215A on phage (ligand)
chain: SHLVKCAEKEKTFCVNGGECFMVKDLSNPSRYLCKCPNAFTGDRCQNYVMASFYKHLGIEFMEAEELY
notes: as for B9
Regarding B12, the results for the half-maximal effective concentration (EC50) in assay [3] and in assay [4] were 32 nM and 51 nM, respectively.

B13: HRG-β1 177-244 F229A on phage (ligand)
chain: SHLVKCAEKEKTFCVNGGECFMVKDLSNPSRYLCKCPNEFTGDRCQNYVMASAYKHLGIEFMEAEELY
notes: as for B3
For the molecule B13, the response in assay [4] was half-maximal at 6 nM (EC50). This lies in the single-digit nanomolar range.

B14: HRG-β1 177-244 R207A on phage (ligand)
chain: SHLVKCAEKEKTFCVNGGECFMVKDLSNPSAYLCKCPNEFTGDRCQNYVMASFYKHLGIEFMEAEELY
notes: as for B9
In assay [3], B14 showed an EC50 of 30 nM. This lies in the double-digit nanomolar range.

The record behind these values is US20060183194A1 (Genentech, published 2006).
